According to publication PMC3923060, “HCV Core Residues Critical for Infectivity Are Also Involved in Core-NS5A Complex Formation” (PLoS ONE, 2014):

Legend:
[1] = molecular target: Core-Flag-R50A/K51A/R59A/R62A (hepatitis C virus genotype 2a, strain JFH1); test: co-IP; Huh7.5.1 stable cell lines expressing full-length JFH1-Luc/Neo-Core-Flag genomes (wild type or core mutants); anti-Flag M2 agarose, eluted with 3xFLAG peptide; anti-NS5A blot, quantified by IR fluorescence, three experiments
[2] = molecular target: 3xFlag-Core R50A (hepatitis C virus genotype 2a, strain JFH1); test: co-IP; SGR-JFH1 (Huh7 subgenomic JFH1 replicon) cells transfected with 3xFlag-Core (wild type or mutants); anti-Flag M2 agarose, eluted with 3xFLAG peptide; anti-NS5A blot, quantified by IR fluorescence and normalised to precipitated core and expression, three experiments
[3] = molecular target: 3xFlag-Core R59A (hepatitis C virus genotype 2a, strain JFH1); test: as above
[4] = molecular target: 3xFlag-Core R62A (hepatitis C virus genotype 2a, strain JFH1); test: as above
full-length NS5A-His [5] = molecular target: T1, full-length NS5A-His (hepatitis C virus genotype 2a, strain …, UniProt Q99IB8 1977-2442); test: pull-down; 4 µg GST protein (bait) mixed with 10 µg NS5A protein in 100 µl binding buffer (50 mM Tris-HCl pH 7.5, 100 mM NaCl, 5 mM MgCl2, 10% glycerol, 0.5% Igepal CA-630, 1 mM DTT), 3 h at 4°C, then glutathione beads 1 h; Western blot (anti-NS5A, anti-Flag), in Figure 3 quantified by IR fluorescence; conditions: both partners purified
T1 construct: HCV nonstructural protein 5A (NS5A), genotype 2a strain JFH1, full-length; pET-UbCHis vector; also called recombinant NS5A-His; source: E. coli BL21(DE3)pCG1, purified as described previously [60]; not shown: His6, C-terminal, kept
T1 sequence: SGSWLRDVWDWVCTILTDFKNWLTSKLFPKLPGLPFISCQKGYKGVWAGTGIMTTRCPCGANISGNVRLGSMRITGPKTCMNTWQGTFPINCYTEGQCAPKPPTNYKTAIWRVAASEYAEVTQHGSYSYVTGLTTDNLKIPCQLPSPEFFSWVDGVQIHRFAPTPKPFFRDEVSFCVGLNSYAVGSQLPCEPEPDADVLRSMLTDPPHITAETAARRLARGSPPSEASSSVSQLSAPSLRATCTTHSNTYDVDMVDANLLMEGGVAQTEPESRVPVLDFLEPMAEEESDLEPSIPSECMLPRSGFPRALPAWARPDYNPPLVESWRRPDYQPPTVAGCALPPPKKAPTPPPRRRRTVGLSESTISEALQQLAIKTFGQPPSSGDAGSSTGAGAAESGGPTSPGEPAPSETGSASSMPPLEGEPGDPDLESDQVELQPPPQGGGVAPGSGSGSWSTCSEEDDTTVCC

full-length NS5A-His [6] = molecular target: T1, full-length NS5A-His; test: pull-down; as a4, proteins treated with 1, 5 or 10 µM BMS-790052 for 30 min at 4°C; conditions: both partners purified

NS5A from JFH1-Luc/Neo-Core-Flag expressing cells (from UniProt Q99IB8 1977-2442) (natural protein)
percent reduction in NS5A binding against wild-type core [1]: 85%

subgenomic NS5A (from UniProt Q99IB8 1977-2442) (natural protein)
percent reduction in NS5A binding against wild type [2]: 8%
percent reduction in NS5A binding against wild type [3]: 65%
percent reduction in NS5A binding against wild type [4]: 17%

B1: GST-Core2-23-His (domain or fragment)
chain: STNPKPQRKTKRNTNRRPEDVK
notes: HCV core protein, genotype 2a strain JFH1, residues 2-23 (basic domain 1); linker as in m1; also called BD1; BD1 (2-23); not shown: GST, N-terminal, kept; His6, C-terminal, kept
binding result (full-length NS5A-His [5]): binds

B2: GST-Core1-170-His (domain or fragment)
chain: MSTNPKPQRKTKRNTNRRPEDVKFPGGGQIVGGVYLLPRRGPRLGVRTTRKTSERSQPRGRRQPIPKDRRSTGKAWGKPGRPWPLYGNEGLGWAGWLLSPRGSRPSWGPTDPRHRSRNVGKVIDTLTCGFADLMGYIPVVGAPLSGAARAVAHGVRVLEDGVNYATGNLP
notes: HCV core protein, genotype 2a strain JFH1, residues 1-170 (domains D1 and D2); pGEX-2T; also called GST-Core-His; core (D1 and D2 domains); not shown: GST, N-terminal, kept; His6, C-terminal, kept
binding result (full-length NS5A-His [6]): binds

B3: GST-Core-BD2-His (domain or fragment)
chain: PRRGPRLGVRTTRKTSERSQPRGRRQPIPKDRRSTGK
notes: HCV core protein, genotype 2a strain JFH1, residues 38-74 (basic domain 2); linker as in m1; also called GST-Core38-74-His; GST-BD2-His; not shown: GST, N-terminal, kept; His6, C-terminal, kept
binding result (full-length NS5A-His [5]): binds

B4: GST-Core101-121-His (domain or fragment)
chain: RGSRPSWGPTDPRHRSRNVGK
notes: HCV core protein, genotype 2a strain JFH1, residues 101-121 (basic domain 3); linker as in m1; also called BD3; BD3 (101-121); not shown: GST, N-terminal, kept; His6, C-terminal, kept
binding result (full-length NS5A-His [5]): binds
